In the experiment the target is N74D HIV-1 CA-NC complexes (HIV-1). Nature of the experiment: co-sedimentation.

As for “human CPSF6-358 (C-terminally truncated CPSF6), HA-tagged (from UniProt Q16630-2 1-358) (domain or fragment)”, the fold difference in co-purification, wild-type over N74D CA-NC was 3.9 fold.

The substance “rhesus TRIM5alpha, HA-tagged (from UniProt Q0PF16 1-497) (natural protein)” showed a fold more precipitated than by wild-type CA-NC complexes of 2 fold.
